Results: patent US20100305307A1 (published 2010)
One block for each molecule: values may come before it.

Tests used:
[1] = target: human EGF-r expressed on the surface of human carcinoma cells (A431, SW948) (human) (UniProt P00533); assay: cell-based or functional assay
[2] = target: soluble EGF-r purified from A431 cell membranes (Sigma, E-3641) (human, UniProt P00533 25-1210, limits assumed); assay: BIAcore, solid phase, antigen immobilized on the sensor surface
Protocol: Determination of affinity constants of fully human Mabs by BIAcore: Affinity measurement of purified human monoclonal antibodies, Fab fragments, or hybridoma supernatants by plasmon resonance was carried out using the BIAcore 2000 instrument, using general procedures outlined by the manufacturers.
Based upon the general procedures outlined by the manufacture, kinetic analyses of the antibodies were performed using antigens immobilized onto the sensor surface at a low density. […] The dissociation (kd or koff) and association (ka or kₒₙ) rates were determined using the software provided by the manufacturer (BIA evaluation 2.1).

IC50, inhibition of A431 cell proliferation in vitro [1]: 0.66 nM
Molecule: murine monoclonal antibody 528

Kd [2]: 0.076 nM
B1: antibody secreted by the hybridoma E1.1 (antibody, V domains shown)
VH: VSGGSINSGDYYWSWIRQHPGKGLDCIGYIYYSGSTYYNPSLKSRVTISVDTSKNQFFLKLTSVTAADTAVYYCARSTVVNPGWFDPWGQGTLVTVSS
VL: TITCQASQDINNYLNWFQQKPGKAPKVLIHDASNLETGGPSRFSGSGSGTDFTFTISGLQPEDIATYYCQQYESLPLTFGGGTKVEIKR
notes: Fully human IgG2 heavy chain with human kappa light chain; they were cloned by PCR between V-region and constant-region primers, so they are probably not full chains
